The target in test [1] is human GPC3 on Jurkat E6.1 cells (human) (UniProt P51654). Description: FACS; share of events in the FL1-A+ gate (from 10^5); secondary only 0.21; cells by legend: Jurkat E6.1 with human GPC3, not printed on the panel [23B].
For test [2] the target is unchanged. Nature of the test: FACS; share of events in the FL1-A+ gate (from 10^5); beside Irrelavant IgG C10 6.49; cells by legend: Jurkat E6.1 with human GPC3, not printed on the panel [23D]. Background: In flow cytometry, cells or beads pass a laser one at a time.
The target is the same in test [3]. Nature of the test: FACS; share of events in the FL1-A+ gate (from 10^5); cells by legend: Jurkat E6.1 with human GPC3, not printed on the panel [23C].
The target of test [4] is T1, human GPC3 recombinant protein (human, UniProt P51654 25-559).
T1 construct: also called huGPC3; Human GPC3 protein
T1 sequence (P51654 25-559 limits assumed): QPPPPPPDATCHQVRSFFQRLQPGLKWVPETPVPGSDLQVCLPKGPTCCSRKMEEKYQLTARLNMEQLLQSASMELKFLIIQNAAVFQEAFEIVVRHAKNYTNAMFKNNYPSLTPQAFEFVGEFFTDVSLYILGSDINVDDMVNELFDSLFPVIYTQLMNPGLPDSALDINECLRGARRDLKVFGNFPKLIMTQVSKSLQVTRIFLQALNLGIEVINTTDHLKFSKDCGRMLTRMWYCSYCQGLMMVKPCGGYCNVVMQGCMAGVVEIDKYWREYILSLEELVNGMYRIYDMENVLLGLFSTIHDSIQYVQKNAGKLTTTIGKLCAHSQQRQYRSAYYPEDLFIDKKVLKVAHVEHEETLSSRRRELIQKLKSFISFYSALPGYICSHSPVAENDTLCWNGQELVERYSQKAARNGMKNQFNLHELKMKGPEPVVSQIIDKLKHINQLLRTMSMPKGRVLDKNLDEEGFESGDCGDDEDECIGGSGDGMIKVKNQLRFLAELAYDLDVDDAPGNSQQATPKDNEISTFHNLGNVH
Nature of the test: SPR (Biacore), summary table; Chi2 0.0556; Profile 'L.D.'; asterisk: values not accurately calculated by Biacore software. The protocol:
(§1) Affinities of the 19 VHH-His tagged domains were then determined by BiaCore assay. Human GPC3 protein (Sino biological cat. nr. 10088-H08H-500) was immobilized on CM5 sensor chip (GE Healthcare) as antigen. Purified VHH-His tagged domains were diluted in BiaCore buffer (0.01 M HEPES pH 7.4, 0.15 M NaCl, 3 mM EDTA, 0.05% P20) to 500 nM and injected over 2 minutes at […] followed by a half dilution series to 7.8 nM. 10 μl of 10 mM NaOH/1M NaCl were injected between samples and then off-rate wash was 5 minutes.

Test [5] addresses T1, human GPC3 recombinant protein. Description: SPR (Biacore), VHH-His over human GPC3 on CM5; fit 131.7 - 17.34 nM; Rmax 1.51 RU; Chi2 0.0556. The protocol:
as §1

For test [6] the target is unchanged. Nature of the test: SPR (Biacore), VHH-His over human GPC3 on CM5; fit 131.7 - 17.34 nM; Rmax 1.51 RU; Chi2 0.0556; asterisk: values not accurately calculated by Biacore software. The protocol: as §1
For test [7], the target named is T2, human GPC3 on HepG2 cells (human, UniProt P51654 25-554).
T2 construct: whole, on cells
T2 sequence (P51654 25-554 limits assumed): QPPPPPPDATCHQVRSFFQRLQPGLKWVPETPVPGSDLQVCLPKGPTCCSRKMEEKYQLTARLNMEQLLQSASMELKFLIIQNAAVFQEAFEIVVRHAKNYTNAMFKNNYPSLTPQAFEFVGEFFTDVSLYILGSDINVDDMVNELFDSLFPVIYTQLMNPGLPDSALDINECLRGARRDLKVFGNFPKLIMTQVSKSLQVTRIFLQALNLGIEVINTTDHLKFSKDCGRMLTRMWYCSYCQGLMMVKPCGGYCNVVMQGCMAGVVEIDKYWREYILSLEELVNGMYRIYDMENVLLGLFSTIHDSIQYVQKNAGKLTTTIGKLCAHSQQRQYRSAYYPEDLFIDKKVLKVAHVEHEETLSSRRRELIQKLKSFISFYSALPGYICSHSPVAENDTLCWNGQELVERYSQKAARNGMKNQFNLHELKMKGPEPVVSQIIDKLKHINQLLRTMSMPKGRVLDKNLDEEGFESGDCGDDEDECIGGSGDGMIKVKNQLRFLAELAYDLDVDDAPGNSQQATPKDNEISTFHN
Nature of the test: FACS, phage-displayed clone on HepG2, well A1; same clone on A-431 (no GPC3): 1028.96.

The target in test [8] is T2, human GPC3 on HepG2 cells. Description: FACS, phage-displayed clone on HepG2, well A1; same clone on A-431 (no GPC3): 0.95%.
Test [9] has as its target T1, human GPC3 recombinant protein. Description: SPR (Biacore) off-rate screen, periplasmic extract over human GPC3 on CM5; R0 13.6; asterisk not explained on the sheet. Here is the method: (§2) Human GPC3 protein in acetate buffer, pH 5.0, was immobilized in a sensor chip CM5 (GE Healthcare; Cat. Nr. BR-1005-30; Lot. Nr.10245232) and successful immobilization was confirmed by using a commercially available human GPC3 antibody (R&D cat. nr. MAB2119) and the anti-GPC3-VHH-Fc (both at 10 μg/mL). Periplasmic extracts from the MP were diluted in Biacore Buffer (0.01 M HEPES pH 7.4, 0.15 M NaCl, 3 mM EDTA, 0.05% P20) and injected over 2 minutes at 30 μL/min. 10 μl of 10 mM NaOH/1M NaCl were injected between samples and off-rates were measured over 5 minutes. Off-rate ([…]) were calculated using BIACORE software 1:1 interaction Langmuir binding model.
For orientation: In SPR one partner is held on a chip, and binding of the other changes the refractive index at the surface.

Test [10] concerns the target T2, human GPC3 on HepG2 cells. Nature of the test: FACS, periplasmic extract 1:5 + anti-c-myc + GAM-APC on HepG2, well A1; same on A-431: 0.10%.
In test [11] the target is T2, human GPC3 on HepG2 cells. Description: FACS, periplasmic extract 1:5 + anti-c-myc + GAM-APC on HepG2, well A1; same on A-431: 853.36.
Test [12] concerns the target T1, human GPC3 recombinant protein. Nature of the test: SPR (Biacore), VHH-His over human GPC3 on CM5; fit 125 - 7.8 nM; Rmax 16.8 RU; Chi2 0.926. The protocol:
as §1

For test [13] the target is unchanged. Nature of the test: SPR (Biacore), summary table; Chi2 0.926; Profile 'L.D.' (less desirable). The protocol: as §1
Test [14] has the same target. Nature of the test: SPR (Biacore) off-rate screen, periplasmic extract over human GPC3 on CM5; R0 40.1. The protocol:
as §2

Test [15] has the same target. Nature of the test: SPR (Biacore), VHH-His over human GPC3 on CM5; fit 131.7 - 17.34 nM; Rmax 1.72 RU; Chi2 0.173; asterisk: values not accurately calculated by Biacore software. The protocol: as §1
The target is the same in test [16]. Description: SPR (Biacore), VHH-His over human GPC3 on CM5; fit 131.7 - 17.34 nM; Rmax 1.72 RU; Chi2 0.173. Here is the method:
as §1

For test [17] the target is unchanged. Description: SPR (Biacore), summary table; Chi2 0.173; Profile 'L.D.'; asterisk: values not accurately calculated by Biacore software. Here is the method: as §1
For test [18] the target is unchanged. Description: SPR (Biacore), summary table; Chi2 0.281; Profile 'Good'.
Test [19] has the same target. Description: SPR (Biacore), VHH-His over human GPC3 on CM5; fit 131.7 - 17.34 nM; Rmax 11.5 RU; Chi2 0.281. Here is the method:
as §1

For test [20] the target is unchanged. Nature of the test: SPR (Biacore) off-rate screen, periplasmic extract over human GPC3 on CM5; R0 61.1. Here is the method: as §2

The Kd is the concentration at which binding is half-saturated. By koff is commonly meant the rate constant with which the complex falls apart. By kon is commonly meant the second-order rate constant of association.

Sequence of human GPC3 on Jurkat E6.1 cells (human) (P51654 25-554 limits assumed): as above

HN3-Fc (Fc fusion): the FL1-A+ stood at 47.1 in test [1] and 74.9 in [2].

On to Irrelavant IgG C10 (antibody), for which, in test [3], the FL1-A+ was found to be 6.49.

B1: anti-GPC3 VHH-His tagged domain VHH17 (VHH)
VHH: EVQLVESGGGLVQPGGSLRLSCAASGFTFSSYAMSWVRQAPGKGLEWVSAIYSGGSTYYADSVKGRFTISRDNSKNTLYLQMNSLRAEDTAVYYCARGDSSSSRFDYWGQGTLVTVSS
notes: Produced from a mammalian expression vector as a His fusion; not shown: His tag
For B1, the dissociation constant Kd in test [4] is ~5.36 nM. Besides, in test [5], the koff was determined as 0.00119 s⁻¹ and the kon came to 222000 M⁻¹ s⁻¹. In addition, in test [6], the Ka was ~1.86e+08 M⁻¹ and the Kd was ~5.36 nM.

B2: anti-GPC3 VHH-His tagged domain VHH14 (VHH)
VHH: QVQLVESGGGLVQPGGSLRLSCAASGFNFSNYWMHWVRQAPGKELVWVSRINSDGSSTSYADPVKGRFTISRDNANNMLYLQMNSLRAEDTAMYYCVRVALGFDFWGQGTLVTVSS
notes: as for B1
Regarding B2, the Mean FL2-A in test [7] was 2720. For the same molecule, the % of Binding in test [8] is 18.6%; in test [10], 0.38%. The off-rate constant (koff) in test [9] is 0.00728 s⁻¹; in [12], 0.0216 s⁻¹. Further, the Mean FL4-A in test [11] worked out at 729. Also, the Ka in test [12] worked out at 1.51e+07 M⁻¹. The Kd in test [12] and in [13] was 66.2 nM each time. In test [12], the kon came to 327000 M⁻¹ s⁻¹.

B3: VH23 (VHH)
VHH: EVQLVESGGGLVQPGGSLRLSCAASGFTFSSYAMSWVRQAPGKESEWVSSISGGGSSTYYADSLKGRFTISRDNSKNTLYLQMNSLRAEDTAVYYCSKDPRFGEPPFDYWGQGTLVTVSS
notes: also called VHH23
For B3, the dissociation rate constant (koff) in test [14] was 0.00347 s⁻¹.

B4: anti-GPC3 VHH-His tagged domain VHH18 (VHH)
VHH: QVQLVESGGGLVQPGGSLRLSCAASGFTFSSYAMSWVRQAPGKEPEWVSSISGGGSSTYYADSLKGRFTISRDNSKNTLYLQMNSLRAEDTAVYYCSRDPRLGEPPFDYWGQGTTVTVSS
notes: as for B1
For B4, in [15], the Ka is ~2.05e+08 M⁻¹ and the Kd was ~4.88 nM. Besides, in test [16], the koff turned out to be 0.00249 s⁻¹ and the kon came out at 511000 M⁻¹ s⁻¹. For the same molecule, the Kd in test [17] is ~4.88 nM.

B5: anti-GPC3 VHH-His tagged domain VHH4 (VHH)
VHH: QVQLVESGGGLVQPGGSLRLSCAASGFTFSSYAMSWVRQAPGKESEWVSSISGSGSSTYYADSLKGRFTISRDNSKNTLYLQMNSLRAEDTAVYYCSKDPRFGEPPFDYWGQGTTVTVSS
notes: Produced from a mammalian expression vector as a His fusion; also called VH4; not shown: His tag
B5: the Kd in test [18] is 5.07 nM. Moreover, in test [19], the Ka turned out to be 1.97e+08 M⁻¹, the Kd came to 5.07 nM, the koff is 0.00237 s⁻¹ and the kon was 466000 M⁻¹ s⁻¹. Moreover, the koff in test [20] stood at 0.00236 s⁻¹.
